Experimental data as given in article PMC10656227.

Assays:
[1] = molecular target: collagen IV NC1 domains of the NC1 hexamer from rotifers (rotifer (Brachionus plicatilis)); test: SDS-PAGE (SDS resistance of the native hexamer); partially purified NC1 hexamer (SEC hexamer fraction); SDS-PAGE with 150 mM NaCl; sample at room temperature; Western blot with JK2 or TCE in-gel visualization
[2] = molecular target: collagen IV NC1 domains of the NC1 hexamer from rotifers (rotifer (Brachionus plicatilis)); test: SDS-PAGE (SDS resistance of the native hexamer); partially purified NC1 hexamer (SEC hexamer fraction); regular SDS-PAGE without Cl^− supplement; sample at room temperature; Western blot with JK2 or TCE in-gel visualization
[3] = molecular target: collagen IV NC1 domains of the NC1 hexamer from marmoset kidney (common marmoset (Callithrix jacchus)); test: SDS-PAGE (SDS resistance of the native hexamer); partially purified NC1 hexamer (SEC hexamer fraction); SDS-PAGE with 150 mM NaCl; sample at room temperature; Western blot with JK2 or TCE in-gel visualization
[4] = molecular target: collagen IV NC1 domains of the NC1 hexamer from starlet sea anemone (starlet sea anemone (Nematostella vectensis)); test: as above
[5] = molecular target: collagen IV NC1 domains of the NC1 hexamer from mouse kidney (mouse (Mus musculus)); test: SDS-PAGE (SDS resistance of the native hexamer); straight collagenase digest of tissue or animals; SDS-PAGE with 150 mM NaCl; sample at room temperature; Western blot with JK2
[6] = molecular target: collagen IV NC1 domains of the NC1 hexamer from Ascaris suum (Ascaris suum); test: SDS-PAGE (SDS resistance of the native hexamer); purified NC1 hexamer; regular SDS-PAGE without Cl^− supplement; sample at room temperature, not boiled; Coomassie, TCE or Western blot
[7] = molecular target: collagen IV NC1 domains of the NC1 hexamer from Ascaris suum (Ascaris suum); test: SDS-PAGE (SDS resistance of the native hexamer); purified NC1 hexamer; Tris-glycine SDS-PAGE with 150 mM NaCl in running buffer and sample buffer; sample at room temperature, not boiled; Coomassie, TCE or Western blot
[8] = molecular target: collagen IV NC1 domains of the NC1 hexamer from horseshoe crab flatworm (horseshoe crab flatworm (Bdelloura candida)); test: SDS-PAGE (SDS resistance of the native hexamer); partially purified NC1 hexamer (SEC hexamer fraction); SDS-PAGE with 150 mM NaCl; sample at room temperature; Western blot with JK2 or TCE in-gel visualization
[9] = molecular target: collagen IV NC1 domains of the NC1 hexamer from moon jellyfish (moon jellyfish (Aurelia aurita)); test: as above
[10] = molecular target: collagen IV NC1 domains of the NC1 hexamer from American lobster (American lobster (Homarus americanus)); test: SDS-PAGE (SDS resistance of the native hexamer); straight collagenase digest of tissue or animals; SDS-PAGE with 150 mM NaCl; sample at room temperature; Western blot with JK2
[11] = molecular target: collagen IV NC1 domains of the NC1 hexamer from American lobster (American lobster (Homarus americanus)); test: SDS-PAGE (SDS resistance of the native hexamer); straight collagenase digest of tissue or animals; regular SDS-PAGE without Cl^− supplement; sample at room temperature; Western blot with JK2
[12] = molecular target: collagen IV NC1 domains of the NC1 hexamer from brine shrimp (brine shrimp (Artemia salina)); test: SDS-PAGE (SDS resistance of the native hexamer); straight collagenase digest of tissue or animals; SDS-PAGE with 150 mM NaCl; sample at room temperature; Western blot with JK2
[13] = molecular target: collagen IV NC1 domains of the NC1 hexamer from brine shrimp (brine shrimp (Artemia salina)); test: SDS-PAGE (SDS resistance of the native hexamer); straight collagenase digest of tissue or animals; regular SDS-PAGE without Cl^− supplement; sample at room temperature; Western blot with JK2
[14] = molecular target: collagen IV NC1 domains of the NC1 hexamer from brown planaria (brown planaria (Dugesia tigrina)); test: SDS-PAGE (SDS resistance of the native hexamer); partially purified NC1 hexamer (SEC hexamer fraction); SDS-PAGE with 150 mM NaCl; sample at room temperature; Western blot with JK2 or TCE in-gel visualization
[15] = molecular target: collagen IV NC1 domains of the NC1 hexamer from brown planaria (brown planaria (Dugesia tigrina)); test: SDS-PAGE (SDS resistance of the native hexamer); partially purified NC1 hexamer (SEC hexamer fraction); regular SDS-PAGE without Cl^− supplement; sample at room temperature; Western blot with JK2 or TCE in-gel visualization
[16] = molecular target: collagen IV NC1 domains of the NC1 hexamer from Caenorhabditis elegans (Caenorhabditis elegans); test: SDS-PAGE (SDS resistance of the native hexamer); partially purified NC1 hexamer (SEC hexamer fraction); SDS-PAGE with 150 mM NaCl; sample at room temperature; Western blot with JK2 or TCE in-gel visualization
[17] = molecular target: collagen IV NC1 domains of the NC1 hexamer from Caenorhabditis elegans (Caenorhabditis elegans); test: SDS-PAGE (SDS resistance of the native hexamer); partially purified NC1 hexamer (SEC hexamer fraction); regular SDS-PAGE without Cl^− supplement; sample at room temperature; Western blot with JK2 or TCE in-gel visualization
[18] = molecular target: collagen IV NC1 domains of the NC1 hexamer from condylactis anemone (condylactis anemone (Condylactis gigantea)); test: SDS-PAGE (SDS resistance of the native hexamer); partially purified NC1 hexamer (SEC hexamer fraction); SDS-PAGE with 150 mM NaCl; sample at room temperature; Western blot with JK2 or TCE in-gel visualization
[19] = molecular target: collagen IV NC1 domains of the NC1 hexamer from fruit fly (fruit fly (Drosophila melanogaster)); test: SDS-PAGE (SDS resistance of the native hexamer); purified NC1 hexamer; regular SDS-PAGE without Cl^− supplement; sample at room temperature, not boiled; Coomassie, TCE or Western blot
[20] = molecular target: collagen IV NC1 domains of the NC1 hexamer from fruit fly (fruit fly (Drosophila melanogaster)); test: SDS-PAGE (SDS resistance of the native hexamer); purified NC1 hexamer; Tris-glycine SDS-PAGE with 150 mM NaCl in running buffer and sample buffer; sample at room temperature, not boiled; Coomassie, TCE or Western blot
[21] = molecular target: collagen IV NC1 domains of the NC1 hexamer from cicada (cicada (Magicicada spp)); test: SDS-PAGE (SDS resistance of the native hexamer); straight collagenase digest of tissue or animals; SDS-PAGE with 150 mM NaCl; sample at room temperature; Western blot with JK2
[22] = molecular target: collagen IV NC1 domains of the NC1 hexamer from cicada (cicada (Magicicada spp)); test: SDS-PAGE (SDS resistance of the native hexamer); straight collagenase digest of tissue or animals; regular SDS-PAGE without Cl^− supplement; sample at room temperature; Western blot with JK2
[23] = molecular target: collagen IV NC1 domains of the NC1 hexamer from comb jelly (comb jelly (Mnemiopsis leidyi)); test: SDS-PAGE (SDS resistance of the native hexamer); partially purified NC1 hexamer (SEC hexamer fraction); SDS-PAGE with 150 mM NaCl; sample at room temperature; Western blot with JK2 or TCE in-gel visualization
[24] = molecular target: collagen IV NC1 domains of the NC1 hexamer from comb jelly (comb jelly (Mnemiopsis leidyi)); test: SDS-PAGE (SDS resistance of the native hexamer); partially purified NC1 hexamer (SEC hexamer fraction); regular SDS-PAGE without Cl^− supplement; sample at room temperature; Western blot with JK2 or TCE in-gel visualization

collagen IV NC1 domains of the NC1 hexamer from rotifers (domain or fragment)
stoichiometry N [1]: 6
stoichiometry N [2]: 6

collagen IV NC1 domains of the NC1 hexamer from marmoset kidney (domain or fragment)
stoichiometry N [3]: 6

collagen IV NC1 domains of the NC1 hexamer from starlet sea anemone (domain or fragment)
stoichiometry N [4]: 6

collagen IV NC1 domains of the NC1 hexamer from mouse kidney (domain or fragment)
stoichiometry N [5]: 6

collagen IV NC1 domains of the NC1 hexamer from Ascaris suum (domain or fragment)
stoichiometry N [6]: 6
stoichiometry N [7]: 6

collagen IV NC1 domains of the NC1 hexamer from horseshoe crab flatworm (domain or fragment)
stoichiometry N [8]: 6

collagen IV NC1 domains of the NC1 hexamer from moon jellyfish (domain or fragment)
stoichiometry N [9]: 6

collagen IV NC1 domains of the NC1 hexamer from American lobster (domain or fragment)
stoichiometry N [10]: 6
stoichiometry N [11]: 6

collagen IV NC1 domains of the NC1 hexamer from brine shrimp (domain or fragment)
stoichiometry N [12]: 6
stoichiometry N [13]: 6

collagen IV NC1 domains of the NC1 hexamer from brown planaria (domain or fragment)
stoichiometry N [14]: 6
stoichiometry N [15]: 6

collagen IV NC1 domains of the NC1 hexamer from Caenorhabditis elegans (domain or fragment)
stoichiometry N [16]: 6
stoichiometry N [17]: 6

collagen IV NC1 domains of the NC1 hexamer from condylactis anemone (domain or fragment)
stoichiometry N [18]: 6

collagen IV NC1 domains of the NC1 hexamer from fruit fly (domain or fragment)
stoichiometry N [19]: 6
stoichiometry N [20]: 6

collagen IV NC1 domains of the NC1 hexamer from cicada (domain or fragment)
stoichiometry N [21]: 6
stoichiometry N [22]: 6

collagen IV NC1 domains of the NC1 hexamer from comb jelly (domain or fragment)
stoichiometry N [23]: 6
stoichiometry N [24]: 6
